Measurements as given in paper PMC12796488, “Distinct structural features of Pseudomonas aeruginosa ATP synthase revealed by cryo-electron microscopy” (Nature Communications, 2025).

Target: the molecule itself
Assay: cryo-EM structure; purified F1Fo complex in digitonin; 10 mM MgADP and 230 uM compound #5 added, 1 h on ice before freezing; maps at 2.0-3.0 Å

B1: P. aeruginosa ATP synthase subunit c (natural protein, Pseudomonas aeruginosa, UniProt Q9HT15 1-85, looked up)
chain: METVVGLTAIAVALLIGLGALGTAIGFGLLGGKFLEGAARQPEMVPMLQVKMFIVAGLLDAVTMIGVGIALFFTFANPFVGQIAG
notes: ATP synthase subunit c of Pseudomonas aeruginosa, expressed from the whole operon (atpIBEFHAGDC) plasmid pASH20; A ring of ten copies in the cryo-EM maps; also called c subunit; c-ring; source: E. coli DK8, purified as part of the whole F1Fo complex (digitonin extraction, Talon resin, Superose 6 SEC); copies: 10
- stoichiometry N: 10
